# Substitutions are numbered along the chain they refer to.
# T1: 鼠TSLP-His (mouse, UniProt Q9JIE6 20-140)
# T1 construct: Bought protein; also called TSLP(Mouse); not shown: His tag
# T1 sequence (looked up): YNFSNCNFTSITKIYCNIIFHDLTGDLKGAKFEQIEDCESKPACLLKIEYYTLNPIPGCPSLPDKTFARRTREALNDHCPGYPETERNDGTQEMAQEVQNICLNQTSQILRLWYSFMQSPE
# B1: 人源化抗TSLP单克隆抗体HA-Ⅱ (antibody, human IgG1, kappa, L234A L235A, V domains shown)
# VH: QVQLVQSGAEVKKPGASVKVSCKASGYTFTSYWMHWVRQAPGQGLEWIGLIDPSDSDTTYNQKFKGRATLTVDTSTSTAYMELSSLRSEDTAVYYCSRSLDGYFDHWGQGTLVTVSS
# VL: DIVMTQSPSSLSASVGDRVTITCRASENIYSYLAWYQQKPGKAPKLLVYNARTLAEGVPSRFSGSGSGTDFTLTISSLQPEDFATYYCQHHYGTPWTFGGGTKVEIKR
# notes: Humanized from MA-Ⅰ
# B2: 人源化抗TSLP单克隆抗体HA-Ⅰ (antibody, human IgG1, kappa, L234A L235A, V domains shown)
# VH: B1 VH
# VL: B1 VL with A43S
# notes: Humanized from MA-Ⅰ; also called HA-1
# B3: 人源化抗TSLP单克隆抗体HA-Ⅳ (antibody, human IgG1, kappa, L234A L235A)
# heavy: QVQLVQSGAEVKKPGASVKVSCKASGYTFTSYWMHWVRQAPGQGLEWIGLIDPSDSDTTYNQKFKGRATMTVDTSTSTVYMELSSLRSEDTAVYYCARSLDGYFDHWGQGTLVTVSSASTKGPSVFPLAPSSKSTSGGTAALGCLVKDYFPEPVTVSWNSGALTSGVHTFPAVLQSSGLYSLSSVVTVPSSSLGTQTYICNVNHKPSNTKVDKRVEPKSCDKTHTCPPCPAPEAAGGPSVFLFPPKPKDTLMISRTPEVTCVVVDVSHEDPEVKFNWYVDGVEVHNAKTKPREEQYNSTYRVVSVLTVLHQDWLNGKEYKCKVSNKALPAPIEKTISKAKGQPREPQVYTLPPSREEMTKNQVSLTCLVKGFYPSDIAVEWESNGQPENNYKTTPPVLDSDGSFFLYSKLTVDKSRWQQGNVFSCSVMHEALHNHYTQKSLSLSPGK
# light: DIVMTQSPSSLSASVGDRVTITCRASENIYSYLAWYQQKPGKAPKLLVYNARTLAEGVPSRFSGSGSGTDFTLTISSLQPEDFATYYCQHHYGTPWTFGGGTKVEIKRTVAAPSVFIFPPSDEQLKSGTASVVCLLNNFYPREAKVQWKVDNALQSGNSQESVTEQDSKDSTYSLSSTLTLSKADYEKHKVYACEVTHQGLSSPVTKSFNRGEC
# notes: Humanized from MA-Ⅰ
# B4: 人源化抗TSLP单克隆抗体HA-Ⅲ (antibody, human IgG1, kappa, L234A L235A)
# heavy: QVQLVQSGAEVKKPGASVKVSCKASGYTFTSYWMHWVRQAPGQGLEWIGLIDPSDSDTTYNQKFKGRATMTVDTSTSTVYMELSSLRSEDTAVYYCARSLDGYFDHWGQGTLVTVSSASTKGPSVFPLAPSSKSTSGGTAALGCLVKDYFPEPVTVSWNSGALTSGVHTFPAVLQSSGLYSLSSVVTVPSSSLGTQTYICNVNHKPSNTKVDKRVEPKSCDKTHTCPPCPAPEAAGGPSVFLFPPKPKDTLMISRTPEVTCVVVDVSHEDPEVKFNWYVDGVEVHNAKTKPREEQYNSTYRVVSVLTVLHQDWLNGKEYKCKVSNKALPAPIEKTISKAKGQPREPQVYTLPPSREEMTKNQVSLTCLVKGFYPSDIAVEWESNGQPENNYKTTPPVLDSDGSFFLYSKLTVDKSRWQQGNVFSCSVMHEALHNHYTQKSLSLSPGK
# light: B3 light with V3Q
# notes: Humanized from MA-Ⅰ
# B5: MA-Ⅲ鼠源抗TSLP单克隆抗体 (murine IgG1/Ck) (antibody, V domains shown)
# VH: QVQLQQPGAELVKPGASVKMSCKASGYTFTSYWMHWVKQRPGQGLEWIGVIDPSDSDTTYNQKFKGKATLTVDTSSSTVYMQLSSLTSEDSAVYYCTRSLDGYFDHWGQGTLVTVSA
# VL: DIVMTQSPASLSASVGETVTITCRASGNIHNYLAWYQQKQGKSPQLLVYNAKTLADGVPSRFSGSGSGTQYSLKINSLQPEDFGSYYCQHFWSTPWTFGGGTKLEIKA
# B6: MA-Ⅳ鼠源抗TSLP单克隆抗体 (murine IgG1/Ck) (antibody, V domains shown)
# VH: B5 VH with Q3K, Q5E, P7S, V79A
# VL: B5 VL with M4I, S7T, A51T, W96Y
# B7: MA-Ⅰ鼠源抗TSLP单克隆抗体 (murine IgG1/Ck) (antibody)
# heavy: QVQLEQSGAELVKPGASVKMSCKASGYTFTSYWMHWVKQRPGQGLEWIGLIDPSDSDTTYNQKFKGKATLTVDTSSSTAYMQLGSLTSEDSAVYYCSRSLDGYFDHWGQGTLVTVSAAKTTPPSVYPLAPGSAAQTNSMVTLGCLVKGYFPEPVTVTWNSGSLSSGVHTFPAVLQSDLYTLSSSVTVPSSTWPSETVTCNVAHPASSTKVDKKIVPRDCGCKPCICTVPEVSSVFIFPPKPKDVLTITLTPKVTCVVVDISKDDPEVQFSWFVDDVEVHTAQTQPREEQFNSTFRSVSELPIMHQDWLNGKEFKCRVNSAAFPAPIEKTISKTKGRPKAPQVYTIPPPKEQMAKDKVSLTCMITDFFPEDITVEWQWNGQPAENYKNTQPIMDTDGSYFVYSKLNVQKSNWEAGNTFTCSVLHEGLHNHHTEKSLSHSPG
# light: DIVMTQSPASLSASVGETVTITCRASENIYSYLAWYQQKQGKSPQLLVYNARTLAEGVPSRFSGSGSGTQFSLKINSLQPEDFGSFYCQHHYGTPWTFGGGTKLEIKADAAPTVSIFPPSSEQLTSGGASVVCFLNNFYPKDINVKWKIDGSERQNGVLNSWTDQDSKDSTYSMSSTLTLTKDEYERHNSYTCEATHKTSTSPIVKSFNRNEC
# notes: also called MA-I
# B8: MA-Ⅱ鼠源抗TSLP单克隆抗体 (murine IgG1/Ck) (antibody, V domains shown)
# VH: B5 VH with Q3K, P7S, S31T, D57Y, T58I, V79A, H106Y
# VL: B5 VL with M4L, G27E, H30Y, N31S, D56E, Y71F, F91H, W92Y, S93G
# B9: 嵌合抗体CA-Ⅰ (antibody, human IgG1, kappa, L234A L235A)
# heavy: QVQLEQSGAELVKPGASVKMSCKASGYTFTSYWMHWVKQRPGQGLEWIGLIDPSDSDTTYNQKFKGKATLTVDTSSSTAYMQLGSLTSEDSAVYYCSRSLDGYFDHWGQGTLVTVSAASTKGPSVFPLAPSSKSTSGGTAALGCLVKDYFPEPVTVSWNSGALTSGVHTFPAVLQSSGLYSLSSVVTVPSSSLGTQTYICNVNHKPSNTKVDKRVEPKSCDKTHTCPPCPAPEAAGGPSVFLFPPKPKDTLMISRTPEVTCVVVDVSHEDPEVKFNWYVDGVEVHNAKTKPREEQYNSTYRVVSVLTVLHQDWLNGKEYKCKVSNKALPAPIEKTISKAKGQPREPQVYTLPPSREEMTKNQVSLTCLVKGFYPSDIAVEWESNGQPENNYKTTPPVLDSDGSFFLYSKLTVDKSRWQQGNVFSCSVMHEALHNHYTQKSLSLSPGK
# light: DIVMTQSPASLSASVGETVTITCRASENIYSYLAWYQQKQGKSPQLLVYNARTLAEGVPSRFSGSGSGTQFSLKINSLQPEDFGSFYCQHHYGTPWTFGGGTKLEIKRTVAAPSVFIFPPSDEQLKSGTASVVCLLNNFYPREAKVQWKVDNALQSGNSQESVTEQDSKDSTYSLSSTLTLSKADYEKHKVYACEVTHQGLSSPVTKSFNRGEC
# notes: also called chimeric antibody CA-I
# Target: T2, 猴TSLP-His (食蟹猴TSLP) (cynomolgus monkey, UniProt A0A7N9CAT7 29-159)
# T2 construct: Bought protein; also called TSLP(Cynomolgus); not shown: His tag
# Assay: ELISA, cynomolgus TSLP-His coated, goat anti-human IgG-HRP
# T2 sequence (A0A7N9CAT7 entry or part of it): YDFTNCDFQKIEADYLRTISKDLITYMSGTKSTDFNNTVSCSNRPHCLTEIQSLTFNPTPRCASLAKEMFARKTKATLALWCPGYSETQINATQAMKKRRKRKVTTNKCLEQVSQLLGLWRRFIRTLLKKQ
row,EC50,Binder
1,0.0508 µg/mL,B1
2,0.0273 µg/mL,B2
3,0.0508 µg/mL,B3
4,0.0892 µg/mL,B4

# Target: T3, TSLP (人TSLP, thymic stromal lymphopoietin) (human, UniProt Q969D9 29-159, limits assumed)
# T3 construct: also called TSLP抗原; 抗原TSLP
# Assay: ELISA, TSLP coated, goat anti-mouse IgG-HRP
row,EC50,Binder
1,0.00198 µg/mL,B5
2,0.00557 µg/mL,B6
3,0.0011 µg/mL,B7
4,0.00204 µg/mL,B8

# Target: T1, 鼠TSLP-His
# Assay: ELISA, mouse TSLP-His coated
row,binding result,Binder
1,no binding (tested: 16μg/ml),B1
2,no binding (tested: 16μg/ml),B2
3,no binding (tested: 16μg/ml),B3
4,no binding (tested: 16μg/ml),B4

# Target: T4, 人TSLP-His (human, UniProt Q969D9 29-159, limits assumed)
# T4 construct: also called TSLP(Human); not shown: His tag
# Assay: competition ELISA: CRLF2-Fc coated, TSLP-His 10μg/ml plus antibody dilutions, anti-His-HRP
row,IC50,Binder
1,2.4 µg/mL,B5
2,11.8 µg/mL,B6
3,1.52 µg/mL,B7
4,15.6 µg/mL,B8

# Target: T4, 人TSLP-His
# Assay: ELISA, TSLP-His coated, goat anti-human IgG-HRP
row,EC50,Binder
1,0.0131 µg/mL,B9

# From patent publication CN117990807A (BEIJING DONGFANG BIOTECH CO LTD; BEIJING JINGYI TAIXIANG …, dated 2024)
